T1: amphyphisin SH3 (AMPH_HUMAN), P49418
T1 chain: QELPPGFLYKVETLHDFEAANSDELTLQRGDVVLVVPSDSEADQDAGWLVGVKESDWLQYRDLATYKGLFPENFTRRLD


How the values were obtained:
[1] = target: T1, amphyphisin SH3 (AMPH_HUMAN), P49418; experiment: SPOT array
[2] = target: endophilin SH3 (SH3G2_HUMAN), Q99962; experiment: SPOT array

Row | Binder | normalised SPOT signal, Boehringer light units (BLU); mean over the file's lines of this peptide [1] | normalised SPOT signal, Boehringer light units (BLU); mean over the file's lines of this peptide [2]
1 | NSEHFHRPLRRSEA [O15050 583-596] | 512 | 199
2 | NSFIPKRPIPTIKD [Q96TH1 910-923] | 49.2 | 556
3 | NSQAPRRPWLASHM [O43284 274-287] | 88.2 | 6860
4 | NDRFPFRPSRGRPT [Q9Y3I1 502-515] | 2600 | 4510
5 | NEDYPRRPLTRARS [Q9HC40 116-129] | 393 | 690
6 | NEPHIKRPMNAFMV [P35711 136-149] | 46.1 | 0
7 | NEPLFVRPPKGSPQ [Q9H251 2718-2731] | 215 | 154
8 | AREEFRRPRESLLN [Q96JI4 1223-1236] | 19.8 | 27.4
9 | NETGLSRPRRTAMS [Q15598 1736-1749] | 742 | 154
10 | NFGDLGRPGRGGRG [Q9Y367 343-356] | 895 | 882
11 | NFGNLPRPGRGARG [Q9NYJ2 360-373] | 946 | 1340
12 | NFQPPKRPFKRMNY [O43776 380-393] | 793 | 525
13 | NGAEPKRPSRPINI [Q9Y6X2 222-235] | 3920 | 105
14 | NGTQILRPPKVLSP [Q14676 96-109] | 5 | 150
15 | NGVEPKRPSRPINI [O75925 239-252] | 4650 | 35.6
16 | NGYFFKRPYPFVLF [Q9NWE7 371-384] | 64.4 | 106
17 | NIEKIKRPRSSNAE [Q12920 238-251] | 26.5 | 55.4
18 | NINGIRRPLQGVAN [Q9Y5X7 8-21] | 17.3 | 44.7
19 | ARGSPARPRRLPLL [Q13308 4-17] | 6690 | 1930
20 | NIQTLDRPIKKGPV [Q9P2M9 345-358] | 16.4 | 58.7
21 | NKIEFKRPGKAANK [Q9ULP1 1037-1050] | 124 | 128

Row | Binder | normalised SPOT signal, Boehringer light units (BLU); mean over the file's lines of this peptide [1] | normalised SPOT signal, Boehringer light units (BLU); mean over the file's lines of this peptide [2]
22 | NKVHIKRPTTGLLM [Q92186 286-299] | 32.2 | 125
23 | NKVPIKRPSTGLLM [Q92187 271-284] | 6.6 | 366
24 | NLFGPKRPKALKLL [O75560 490-503] | 113 | 1970
25 | NLLPPKRPIKEVLT [Q9NNY5 699-712] | 370 | 1560
26 | NLSLLRRPGEKTYT [P23246 281-294] | 29.7 | 23.4
27 | NMNRFDRPDRNVRQ [Q9ULU1 327-340] | 3660 | 452
28 | NMSDPRRPNKVLRY [Q9Y284 5-18] | 641 | 1060
29 | NNPLIGRPNKVTTV [O60306 1318-1331] | 45.8 | 267
30 | ARKQPRRPHFLLEP [O60289 975-988] | 30.4 | 31.6
31 | NNRVLRRPSERGRA [Q9Y3S6 986-999] | 150 | 652
32 | NPALFPRPERYNPQ [P15538 413-426] | 318 | 102
33 | NQKQLKRPAQGKRQ [Q9H6S7 54-67] | -0 | 68.6
34 | NQSVPKRPAGSVQN [P00533 1094-1107] | 23.4 | 26.5
35 | NRWGPGRPPFRKAQ [Q9Y2K9 813-827] | 67.5 | 6400
36 | NSAGISRPSRVSDA [P54296 461-474] | 362 | 95.7
37 | NSDTPPRPDRLPLD [Q05209 516-529] | 125 | 0
38 | NSFSPQKPPGHSSR [Q9BX63 202-216] | 43.8 | 505
39 | NSHLLPRPLRHLAS [P47901 342-355] | 1620 | 2290
40 | NSMGIKRPAPQPAS [O94830 308-321] | 24.3 | 165
41 | ARLPPPRPQRPAET [Q9NQE0 226-239] | 678 | 3150
42 | NSPTLERPGRKRKW [Q9H247 116-129] | 497 | 81.5

— article PMC314469, “Protein Interaction Networks by Proteome Peptide Scanning” (PLoS Biology, 2004)
